{
  "source": "patent US20030092037A1",
  "about": "“Elk1 phosphorylation related gene” (priority 2001, published 2003)",
  "test_system": "MAP kinase cascade activation",
  "assay": "Reporter activity reflecting MAP kinase cascade activation, corrected using an internal control (Elk1-GAL4 luciferase reporter in 293-EBNA cells)",
  "format": "cell-based, human",
  "details": "for Reporter activity corrected with internal control, as a factor of null vector (S/B value): 293-EBNA cells, 24 hours; for Dependence of corrected reporter activity on amount of expression plasmid: plasmid 12.5 ng, 25 ng, 50 ng and 100 ng",
  "description": "(in the presence of 5% CO2). […] The method used for introduction was in accordance with the attached protocol. After culturing for 24 hours at 37° C., reporter activity (firefly luciferase acitivity), which reflects MAP kinase cascade activation, and reporter activity being the internal control (sea pansy luciferase) were measured using Picagene Dual (purchased from Toyo Ink Manufacturing) in accordance with the manufacturer's instructions.\nLuciferase activity was measured with Perkin Elmer's Wallac ARVOTMST 1420 MULTILABEL COUNTER.\nReporter activity where an expression plasmid comprising the above gene was introduced, which reflects MAP kinase cascade activation corrected with internal control reporter activity, is shown in Table 1, which is expressed as a factor of the same reporter activity where a null vector was introduced (S/B value).",
  "key": {"[1]": {"details": "12.5 ng/well expression plasmid"}},
  "data": [
    {"molecule": "110 (protein, listed as Homo sapiens) MERPLCSHLCSCLAMLALLSPLSLAQYDSWPHYPEYFQQPAPEYHQPQAPANVAKIQLRLAGQKRKHSEGRVEVYYDGQWGTVCDDDFSIHAAHVVCRELGYVEAKSWTASSSYGKGEGPIWLDNLHCTGNEATLAACTSNGWGVTDCKHTEDVGVVCSDKRIPGFKFDNSLINQIENLNIQVEDIRIRAILSTYRKRTPVMEGYVEVKEGKTWKQICDKHWTAKNSRVVCGMFGFPGERTYNTKVYKMFASRRKQRYWPFSMDCTGTEAHISSCKLGPQVSLDPMKNVTCENGLPAVVSCVPGQVFSPDGPSRFRKAYKPEQPLVRLRGGAYIGEGRVEVLKNGEWGTVCDDKWDLVSASVVCRELGFGSAKEAVTGSRLGQGIGPIHLNEIQCTGNEKSIIDCKFNAESQGCNHEEDAGVRCNTPAMGLQKKLRLNGGRNPYEGRVEVLVERNGSLVWGMVCGQNWGIVEAMVVCRQLGLGFASNAFQETWYWHGDVNSNKVVMSGVKCSGTELSLAHCRHDGEDVACPQGGVQYGAGVACSETAPDLVLNAEMVQQTTYLEDRPMFMLQCAMEENCLSASAAQTDPTTGYRRLLRFSSQIHNNGQSDFRPKNGRHAWIWHDCHRHYHSMEVFTHYDLLNLNGTKVAEGHKASFCLEDTECEGDIQKNYECANFGDQGITMGCWDMYRHDIDCQWVDITDVPPGDYLFQVVINPNFEVAESDYSNNIMKCRSRYDGHRIWMYNCHIGGSFSEETEKKFEHFSGLLNNQLSPQ", "values": [
      {"measurement": "Reporter activity corrected with internal control, as a factor of null vector (S/B value)", "setting": "[1]", "result": 2.3},
      {"measurement": "Reporter activity corrected with internal control, as a factor of null vector (S/B value)", "setting": "25 ng/well expression plasmid", "result": 3.4},
      {"measurement": "Reporter activity corrected with internal control, as a factor of null vector (S/B value)", "setting": "50 ng/well expression plasmid", "result": 4.7},
      {"measurement": "Dependence of corrected reporter activity on amount of expression plasmid", "result": "increases that were dependent on the amount of expression plasmid"}
    ]},
    {"molecule": "50 (protein, listed as Homo sapiens) MAKERRRAVLELLQRPGNARCADCGAPDPDWASYTLGVFICLSCSGIHRNIPQVSKVKSVRLDAWEEAQVEFMASHGNDAARARFESKVPSFYYRPTPSDCQLLREQWIRAKYERQEFIYPEKQEPYSAGYREGFLWKRGRDNGQFLSRKFVLTEREGALKYFNRNDAKEPKAVMKIEHLNATFQPAKIGHPHGLQVTYLKDNSTRNIFIYHEDGKEIVDWFNALRAARFHYLQVAFPGASDADLVPKLSRNYLKEGYMEKTGPKQTEGFRKRWFTMDDRRLMYFKDPLDAFARGEVFIGSKESGYTVLHGFPPSTQGHHWPHGITIVTPDRKFLFACETESDQREWVAAFQKAVDRPMLPQEYAVEAHFKHKP", "values": [
      {"measurement": "Reporter activity corrected with internal control, as a factor of null vector (S/B value)", "setting": "25 ng/well expression plasmid", "result": 2.3},
      {"measurement": "Reporter activity corrected with internal control, as a factor of null vector (S/B value)", "setting": "50 ng/well expression plasmid", "result": 4.3},
      {"measurement": "Reporter activity corrected with internal control, as a factor of null vector (S/B value)", "setting": "100 ng/well expression plasmid", "result": 3.8},
      {"measurement": "Dependence of corrected reporter activity on amount of expression plasmid", "result": "increases that were dependent on the amount of expression plasmid"}
    ]},
    {"molecule": "60 (protein, listed as Homo sapiens) MLGSGFKAERLRVNLRLVINRLKLLEKKKTELAQKARKEIADYLAAGKDERARIRVEHIIREDYLVEAMEILELYCDLLLARFGLIQSMKELDSGLAESVSTLIWAAPRLQSEVAELKIVADQLCAKYSKEYGKLCRTNQIGTVNDRLMHKLSVEAPPKILVERYLIEIAKNYNVPYEPDSVVMVPPQECERMGEALWEDHQRWLDSGREHVVKHPSLVLRFQT", "values": [
      {"measurement": "Reporter activity corrected with internal control, as a factor of null vector (S/B value)", "setting": "25 ng/well expression plasmid", "result": 2.0},
      {"measurement": "Reporter activity corrected with internal control, as a factor of null vector (S/B value)", "setting": "50 ng/well expression plasmid", "result": 2.6},
      {"measurement": "Reporter activity corrected with internal control, as a factor of null vector (S/B value)", "setting": "100 ng/well expression plasmid", "result": 4.2},
      {"measurement": "Dependence of corrected reporter activity on amount of expression plasmid", "result": "increases that were dependent on the amount of expression plasmid"}
    ]},
    {"molecule": "112 (protein, listed as Homo sapiens) METTFGPAFSAVTTITKADGTSTYKQHCRTPSSSSTLAYSPRDEEDSMPPISTPRRSDSAISVRSLHSESSMSLRSTFSLPEEEEEPEPLVFAEQPSVKLCCQLCCSVFKDPVITTCGHTFCRRCALKSEKCPVDNVKLTVVVNNIAVAEQIGELFIHCRHGCRVAGSGKPPIFEVDPRGCPFTIKLSARKDHEGSCDYRPVRCPNNPSCPPLLRMNLEAHLKECEHIKCPHSKYGCTFIGNQDTYETHLETCRFEGLKEFLQQTDDRFHEMHVALAQKDQEIAFLRSMLGKLSEKIDQLEKSLELKFDVLDENQSKLSEDLMEFRRDASMLNDELSHINARLNMGILGSYDPQQIFKCKGTFVGHQGPVWCLCVYSMGDLLFSGSSDKTIKVWDTCTTYKCQKTLEGHDGIVLALCIQGCKLYSGSADCTIIVWDIQNLQKVNTIRAHDNPVCTLVSSHNVLFSGSLKAIKVWDIVGTELKLKKELTGLNHWVRALVAAQSYLYSGSYQTIKIWDIRTLDCIHVLQTSGGSVYSIAVTNHHIVCGTYENLIHVWDIESKEQVRTLTGHVGTVYALAVISTPDQTKVFSASYDRSLRVWSMDNMICTQTLLRHQGSVTALAVSRGRLFSGAVDSTVKVWTC", "values": [
      {"measurement": "Reporter activity corrected with internal control, as a factor of null vector (S/B value)", "setting": "[1]", "result": 7.6},
      {"measurement": "Reporter activity corrected with internal control, as a factor of null vector (S/B value)", "setting": "25 ng/well expression plasmid", "result": 2.2},
      {"measurement": "Reporter activity corrected with internal control, as a factor of null vector (S/B value)", "setting": "50 ng/well expression plasmid", "result": 3.1},
      {"measurement": "Dependence of corrected reporter activity on amount of expression plasmid", "result": "increases that were dependent on the amount of expression plasmid"}
    ]},
    {"molecule": "44 (protein, listed as Homo sapiens) MEDEEVAESWEEAADSGEIDRRLEKKLKITQKESRKSKSPPKVPIVIQDDSLPAGPPPQIRILKRPTSNGVVSSPNSTSRPTLPVKSLAQREAEYAEARKRILGSASPEEEQEKPILDRPTRISQPEDSRQPNNVIRQPLGPDGSQGFKQRR", "values": [
      {"measurement": "Reporter activity corrected with internal control, as a factor of null vector (S/B value)", "setting": "25 ng/well expression plasmid", "result": 9.1},
      {"measurement": "Reporter activity corrected with internal control, as a factor of null vector (S/B value)", "setting": "50 ng/well expression plasmid", "result": 55.4},
      {"measurement": "Reporter activity corrected with internal control, as a factor of null vector (S/B value)", "setting": "100 ng/well expression plasmid", "result": 64.5},
      {"measurement": "Dependence of corrected reporter activity on amount of expression plasmid", "result": "increases that were dependent on the amount of expression plasmid"}
    ]},
    {"molecule": "68 (protein, listed as Homo sapiens) MLKEEQEVAMLGVPHNPAPPMSTVIHIRSETSVPDHVVWSLFNTLSMNTCCLGFIAFAYSVKSRDRKMVGDVTGAQAYASTAKCLNIWALILGIFMTILLIIIPVLVVQAQR", "values": [
      {"measurement": "Reporter activity corrected with internal control, as a factor of null vector (S/B value)", "setting": "25 ng/well expression plasmid", "result": 2.3},
      {"measurement": "Reporter activity corrected with internal control, as a factor of null vector (S/B value)", "setting": "50 ng/well expression plasmid", "result": 4.0},
      {"measurement": "Reporter activity corrected with internal control, as a factor of null vector (S/B value)", "setting": "100 ng/well expression plasmid", "result": 7.3},
      {"measurement": "Dependence of corrected reporter activity on amount of expression plasmid", "result": "increases that were dependent on the amount of expression plasmid"}
    ]},
    {"molecule": "4 (protein, listed as Homo sapiens) MSHEKSFLVSGDNYPPPNPGYPGGPQPPMPPYAQPPYPGAPYPQPPFQPSPYGQPGYPHGPSPYPQGGYPQGPYPQGGYPQGPYPQEGYPQGPYPQGGYPQGPYPQSPFPPNPYGQPQVFPGQDPDSPQHGNYQEEGPPSYYDNQDFPATNWDDKSIRQAFIRKVFLVLTLQLSVTLSTVSVFTFVAEVKGFVRENVWTYYVSYAVFFISLIVLSCCGDFRRKHPWNLVALSVLTASLSYMVGMIASFYNTEAVIMAVGITTAVCFTVVIFSMQTRYDFTSCMGVLLVSMVVLFIFAILCIFIRNRILEIVYASLGALLFTCFLAVDTQLLLGNKQLSLSPEEYVFAALNLYTDIINIFLYILTIIGRAKE", "values": [
      {"measurement": "Reporter activity corrected with internal control, as a factor of null vector (S/B value)", "setting": "25 ng/well expression plasmid", "result": 2.1},
      {"measurement": "Reporter activity corrected with internal control, as a factor of null vector (S/B value)", "setting": "50 ng/well expression plasmid", "result": 4.1},
      {"measurement": "Reporter activity corrected with internal control, as a factor of null vector (S/B value)", "setting": "100 ng/well expression plasmid", "result": 4.5},
      {"measurement": "Dependence of corrected reporter activity on amount of expression plasmid", "result": "increases that were dependent on the amount of expression plasmid"}
    ]},
    {"molecule": "52 (protein, listed as Homo sapiens) MAASRLELNLVRLLSRCEAMAAEKRDPDEWRLEKYVGALEDMLQALKVHASKPASEVINEYSWKVDFLKGMLQAEKLTSSSEKALANQFLAPGRVPTTARERVPATKTVHLQSRARYTSEMRSELLGTDSAEPEMDVRKRTGVAGSQPVSEKQSAAELDLVLQRHQNLQEKLAEEMLGLARSLKTNTLAAQSVIKKDNQTLSHSLKMADQNLEKLKTESERLEQHTQKSVNWLLWAMLIIVCFIFISMILFIRIMPKLK", "values": [
      {"measurement": "Reporter activity corrected with internal control, as a factor of null vector (S/B value)", "setting": "25 ng/well expression plasmid", "result": 2.3},
      {"measurement": "Reporter activity corrected with internal control, as a factor of null vector (S/B value)", "setting": "50 ng/well expression plasmid", "result": 3.6},
      {"measurement": "Reporter activity corrected with internal control, as a factor of null vector (S/B value)", "setting": "100 ng/well expression plasmid", "result": 5.4},
      {"measurement": "Dependence of corrected reporter activity on amount of expression plasmid", "result": "increases that were dependent on the amount of expression plasmid"}
    ]},
    {"molecule": "116 (protein, listed as Mus musculus) MSSAKSARYDRFSGGPANLPSSDSSGTRMETTFGPTFSTVTTITKAADGTGTYKQHRRTPSSSSTLAYSPRDEEDGMEPLVFAEQPSVKLCCQLCCSVFKDPVITTCGHTFCRRCALKSEKCPVDNAKLTVVVNNIAVAEQIGELFIHCRHGCHAAGTGKPGVFEVDPRGCPFTIKLSARKDHESSCDYRPVRCPNNPSCPPLLKMNLEAHLKECEHIKCPHSKYGCTFIGNQDTYETHLETCRFEGLKEFLQQSDDRFHEMHVALAQKDQEIAFLRSMLGKLSEKINQLEKSLELKFDVLDENQSKLSEDLMEFRRDASMLNDELSHINARLNMGILGSYDPQQIFKCKGTFVGHQGPVWCLCVYSMGDLLFSGSSDKTIKVWDTCTTYKCQKTLEGHDGIVLALCIQGCKLYSGSADCTIIVWDIQNLQKVNTIRAHDNPVCTLVSSHNMLFSGSLKAIKVWDIVGTELKLKKELTGLNHWVRALVAAQSYLYSGSYQTIKIWDIRTLDCIHVLQTSGGSVYSIAVTNHHIVCGTYENLIHVWDIESKEQVRTLTGHVGTVYALAVISTPDQTKVFSASYDRSLRVWSMDNMICTQTLLRHQGSVTALAVSRGRLFSGAVDSTVKVWTC", "values": [
      {"measurement": "Reporter activity corrected with internal control, as a factor of null vector (S/B value)", "setting": "[1]", "result": 11.9},
      {"measurement": "Reporter activity corrected with internal control, as a factor of null vector (S/B value)", "setting": "25 ng/well expression plasmid", "result": 17.3},
      {"measurement": "Reporter activity corrected with internal control, as a factor of null vector (S/B value)", "setting": "50 ng/well expression plasmid", "result": 19.9},
      {"measurement": "Dependence of corrected reporter activity on amount of expression plasmid", "result": "increases that were dependent on the amount of expression plasmid"}
    ]}
  ]
}
